Assay results taken from publication PMC8311663 (Molecular cell, 2021).

T1: Mycobacterium tuberculosis RNA polymerase β subunit (M. tuberculosis, UniProt P9WGY9 1-1178)
T1 sequence: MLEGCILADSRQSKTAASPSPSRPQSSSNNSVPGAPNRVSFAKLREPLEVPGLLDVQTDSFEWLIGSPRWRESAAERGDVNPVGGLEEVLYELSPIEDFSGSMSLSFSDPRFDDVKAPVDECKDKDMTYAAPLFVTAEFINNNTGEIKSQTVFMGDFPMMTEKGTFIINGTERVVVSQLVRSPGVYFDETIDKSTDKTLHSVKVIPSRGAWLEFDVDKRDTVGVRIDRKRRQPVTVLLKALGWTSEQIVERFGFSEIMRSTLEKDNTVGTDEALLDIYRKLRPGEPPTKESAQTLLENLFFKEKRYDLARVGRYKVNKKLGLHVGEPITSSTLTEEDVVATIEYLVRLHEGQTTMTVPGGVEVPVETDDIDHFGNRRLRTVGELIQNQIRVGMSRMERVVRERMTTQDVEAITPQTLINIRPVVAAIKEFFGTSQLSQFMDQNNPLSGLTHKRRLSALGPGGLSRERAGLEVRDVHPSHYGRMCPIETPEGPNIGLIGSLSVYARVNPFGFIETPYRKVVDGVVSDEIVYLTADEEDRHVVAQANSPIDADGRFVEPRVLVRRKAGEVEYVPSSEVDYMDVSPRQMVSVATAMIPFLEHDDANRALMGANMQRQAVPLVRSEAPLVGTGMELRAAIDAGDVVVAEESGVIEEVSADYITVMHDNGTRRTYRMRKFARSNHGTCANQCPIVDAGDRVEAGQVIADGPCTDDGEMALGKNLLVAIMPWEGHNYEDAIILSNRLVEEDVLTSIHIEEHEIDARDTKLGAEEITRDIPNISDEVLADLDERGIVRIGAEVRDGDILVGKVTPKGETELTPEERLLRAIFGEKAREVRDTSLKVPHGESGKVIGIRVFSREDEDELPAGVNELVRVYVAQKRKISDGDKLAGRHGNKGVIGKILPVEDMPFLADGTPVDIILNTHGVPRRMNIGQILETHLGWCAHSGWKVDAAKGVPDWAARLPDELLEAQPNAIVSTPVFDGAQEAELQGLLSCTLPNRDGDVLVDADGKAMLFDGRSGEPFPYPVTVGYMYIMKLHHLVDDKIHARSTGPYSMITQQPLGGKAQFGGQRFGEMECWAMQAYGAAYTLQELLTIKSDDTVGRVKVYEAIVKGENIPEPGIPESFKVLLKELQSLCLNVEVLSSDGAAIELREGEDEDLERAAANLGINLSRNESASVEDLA

T2: Mycobacterium tuberculosis σ^A (co-expressed with RbpA) (M. tuberculosis, UniProt P9WGI1)
T2 sequence: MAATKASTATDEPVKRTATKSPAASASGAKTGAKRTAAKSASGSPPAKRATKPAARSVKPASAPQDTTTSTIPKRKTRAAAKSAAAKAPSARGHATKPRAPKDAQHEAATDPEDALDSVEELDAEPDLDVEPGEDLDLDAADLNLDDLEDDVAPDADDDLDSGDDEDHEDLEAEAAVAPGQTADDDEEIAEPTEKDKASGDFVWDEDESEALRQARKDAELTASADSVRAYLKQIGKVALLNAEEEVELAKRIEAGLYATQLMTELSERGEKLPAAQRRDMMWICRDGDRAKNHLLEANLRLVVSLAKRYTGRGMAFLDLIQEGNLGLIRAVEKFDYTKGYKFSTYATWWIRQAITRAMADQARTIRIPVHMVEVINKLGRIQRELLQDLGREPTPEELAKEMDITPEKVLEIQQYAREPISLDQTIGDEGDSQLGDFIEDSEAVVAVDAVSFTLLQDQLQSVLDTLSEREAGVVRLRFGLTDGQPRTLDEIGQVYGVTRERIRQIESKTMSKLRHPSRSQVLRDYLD

B1: Mycobacterium tuberculosis WhiB7 (6His-WhiB7) (natural protein)
chain: MSVLTVPRQTPRQRLPVLPCHVGDPDLWFADTPAGLEVAKTLCVSCPIRRQCLAAALQRAEPWGVWGGEIFDQGSIVSHKRPRGRPRKDAVA
B2: Mycobacterium tuberculosis σ^A (Strep-tag II-σ^A, co-expressed with WhiB7) (natural protein)
chain: AATKASTATDEPVKRTATKSPAASASGAKTGAKRTAAKSASGSPPAKRATKPAARSVKPASAPQDTTTSTIPKRKTRAAAKSAAAKAPSARGHATKPRAPKDAQHEAATDPEDALDSVEELDAEPDLDVEPGEDLDLDAADLNLDDLEDDVAPDADDDLDSGDDEDHEDLEAEAAVAPGQTADDDEEIAEPTEKDKASGDFVWDEDESEALRQARKDAELTASADSVRAYLKQIGKVALLNAEEEVELAKRIEAGLYATQLMTELSERGEKLPAAQRRDMMWICRDGDRAKNHLLEANLRLVVSLAKRYTGRGMAFLDLIQEGNLGLIRAVEKFDYTKGYKFSTYATWWIRQAITRAMADQARTIRIPVHMVEVINKLGRIQRELLQDLGREPTPEELAKEMDITPEKVLEIQQYAREPISLDQTIGDEGDSQLGDFIEDSEAVVAVDAVSFTLLQDQLQSVLDTLSEREAGVVRLRFGLTDGQPRTLDEIGQVYGVTRERIRQIESKTMSKLRHPSRSQVLRDYLD
B3: Mycobacterium tuberculosis CarD (natural protein)
chain: MIFKVGDTVVYPHHGAALVEAIETRTIKGEQKEYLVLKVAQGDLTVRVPAENAEYVGVRDVVGQEGLDKVFQVLRAPHTEEPTNWSRRYKANLEKLASGDVNKVAEVVRDLWRRDQERGLSAGEKRMLAKARQILVGELALAESTDDAKAETILDEVLAAAS
B4: Mycobacterium tuberculosis RbpA (co-expressed with σ^A) (natural protein)
chain: MADRVLRGSRLGAVSYETDRNHDLAPRQIARYRTDNGEEFEVPFADDAEIPGTWLCRNGMEGTLIEGDLPEPKKVKPPRTHWDMLLERRSIEELEELLKERLELIRSRRRG
B5: Mycobacterium tuberculosis RbpA (expressed alone from pET20b) (natural protein)
chain: B4 chain

Key:
Test in all cases: cryo-EM structure
[1] = target: B2
[2] = target: Mycobacterium tuberculosis RNA polymerase β’ subunit (M. tuberculosis, UniProt P9WGY7)
[3] = target: T1, Mycobacterium tuberculosis RNA …
[4] = target: T2, Mycobacterium tuberculosis σ^A …

Row | Binder | binding result [1] | binding result [2] | binding result [3] | binding result [4]
1 | B1 | binds | binds |  | 
2 | B2 |  | binds | binds | 
3 | B3 |  |  | binds | 
4 | B4 |  |  |  | binds
5 | B5 | binds |  |  | 
